Assay results taken from the supplement of paper PMC12042874.
± gives the uncertainty stated by the source.

Assay: amyloid nucleation score (Sup35N fusion, yeast selection) (log enrichment); library NNK1; higher = more nucleation; inactive = no reads after selection
Outline: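 Libraries of peptides of 20 random codons fused to Sup35N were expressed in psi-negative yeast and induced 24 hours with 100 μM copper sulfate. Selection was 7 days at 30°C on medium lacking adenine and uracil, and plasmid inserts were Illumina-sequenced before and after selection. Nucleation score is the DiMSum log enrichment of output over input reads, centred on the mode score of non-aggregating sequences, and sequences with under 100 input reads were left out.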

Substance | amyloid nucleation score
ISGAN | -0.06 ± 0.44
ISGFRKLVMVREVP | -0.606 ± 1.4
ISGGLTGKWVFVLGDWWVMF | -0.206 ± 0.74
ISGTRLVLGLDDSR | 0.069 ± 0.37
ISIQSLRLSSSSWNLTLHCG | 3.25 ± 0.097
ISISLRHECRYKMFEQ | 2.22 ± 0.19
ISKFFYLVW | 0.097 ± 0.52
ISKISPFECGPVVAQ | 1.12 ± 0.73
ISLVLDFGDVYIVS | 6.203 ± 0.048
ISMNF | 0.67 ± 1.1
ISQVIGSRILPRPTEQVA | -1.96 ± 1.3
ISRSASVGRGLGKYESRAVR | 0.353 ± 1.2
ISRSICKREVLQVDR | 0.378 ± 0.51
ISSKLLFSESSPSMSIQTHW | 0.765 ± 0.64
ISSLYLMSFCILFPPRKFVY | -1.09 ± 0.51
ISSRRCVRED | inactive
ISTPKDISSPKSFWNIFFGT | 4.65 ± 0.069
ISVKSW | -0.325 ± 0.98
ITLCVNRLRFRVKLNHQSSF | inactive
ITLKCCMSTRNHMCHR | 3.75 ± 0.066
ITLKF | -0.381 ± 0.43
ITPTYGT | -0.023 ± 0.39
ITRPGKWGRGD | 0.782 ± 0.35
ITSNHSVWGIMLLKLVTGSI | 0.496 ± 0.48

Substance | amyloid nucleation score
IVEDSLRFIANPYTILNR | 0.723 ± 0.55
IVEFASFSVQVNARNDLHLV | 1.73 ± 0.28
IVFRLS | 0.185 ± 0.38
IVGFHGSNFYSDVSVIGQML | inactive
IVIAVMSGSYVSLKSWFLRH | -1.5 ± 1.3
IVLPVCDIITEAVLSCNSPG | 0.318 ± 0.33
IVLWCTWYYNWNWPSALFRM | -0.192 ± 0.78
IVNAKLSWSYPGIIRLCHCE | 0.43 ± 0.28
IVSKFSYQFKSIGINFYFFR | 4.18 ± 0.12
IVSLNGPAKSSAFGKFSGPL | -0.602 ± 0.72
IVSMRL | 0.216 ± 1.4
IVVGRC | 0.144 ± 0.39
IVVLLKNRS | 0.488 ± 0.47
IVVVGD | -1.63 ± 1.3
IWHFASCAYGGVGSKGDPSD | 0.67 ± 0.69
IWLFFFPMSLRFASYWTGLL | -1.1 ± 0.81
IWLKWCNSPLVRLSMGNSSF | 0.206 ± 0.27
IWMLELSGFMKMVQGGHQVG | 3.06 ± 0.14
IWNSVARFRYSSMGFVVSAG | 0.898 ± 0.93
IWPLGNAIK | 1.93 ± 0.51
IWRTLWMWSVGTSTNPVHSL | -0.088 ± 0.49
IWRWPRMESKSGYHSDFNST | -1.32 ± 2.4
IWSGATV | 0.445 ± 0.41
IWVSGWNYVGRVVVEYQRLS | 0.444 ± 1.4

Substance | amyloid nucleation score
IWVSLDYMKSGNGNFTDSFC | 2.82 ± 0.12
IWWFGSILFLRQSWYKIWSC | -0.877 ± 0.39
IWYSDVGPTTN | -1.14 ± 0.56
IYACTYY | 0.184 ± 0.45
IYISYIRRRFVGLFST | -0.938 ± 0.47
IYLNFLPVVPCRFFCIRTWG | inactive
IYLPRNVFRLTWFYLSQSLA | 0.639 ± 1.1
IYNFSKYPVFGKTRALGFNF | -0.395 ± 0.67
IYNLNVISSVCESTRCRQTA | 7.08 ± 0.078
IYNRKTYFMTTSATVVFAVP | 0.696 ± 0.4
IYQKGMVLGATRNGFSRCKG | -0.173 ± 0.3
IYRGSNRLRRIGWEFNVALD | -0.819 ± 0.33
IYTRFFNTV | -0.222 ± 0.36
IYVYQLSFCCKAY | 0.235 ± 0.66
IYYSFVGLVMCYAFPAEVWS | 1.4 ± 0.51
KAIRMLFSVMIVKR | inactive
KCDARVVIFYLVRAGGVNGI | 1.41 ± 0.35
KCHLFKHLL | 1.66 ± 0.6
KCIYTEKEMGLSAFTLRLYI | 6.286 ± 0.058
KCIYVFSYIYTFLNMCWRGH | 3.5 ± 0.1
KCMTIAWIQSSVSAILLLNC | -0.181 ± 1.4
KCRKASMSSPILDLCTRMRC | -1.18 ± 1.9
KDCDMIGDSVYGSKFVTREM | 0.503 ± 0.34
KDQKISVIMFILMRVPLY | 0.546 ± 0.45
